According to patent US9260500B2, “Peptide and use thereof” (Takeda Pharmaceutical Company Limited, priority 2009, dated 2016):
Starred links: 1 amine or outer side, 2 acyl side, 3 side chain; linkers in the order of their positions; H or OH if unused. Non-standard residues stand in square brackets, D forms with d. No end group written: not given here. *: point of attachment. X11 = ((1S)-1-carboxy-3-methylbutyl)carbamoyl, CC(C)C[C@H](NC(=O)*)C(=O)O; tBuAla = CC(C)(C)C[C@H](N)C(=O)O; 4Pal = N[C@@H](Cc1ccncc1)C(=O)O; dHyp = O=C(O)[C@H]1C[C@H](O)CN1; Cha = N[C@@H](CC1CCCCC1)C(=O)O; Suc = O=C(CCC(=O)[*:2])[*:1]; Iva = CC[C@](C)(N)C(=O)O; Aib = CC(C)(N)C(=O)O; βAla = NCCC(=O)O

Key:
human Y2 receptor [1] = target: T1, human Y2 receptor (Homo sapiens, UniProt P49146); experiment: Human Y2 Receptor G Protein Binding Assay (GBA), [35S]GTPγS; type: biochemical; conditions: EC50 of test compound/EC50 of PYY(3-36) (PYY3-36 taken as 1), hY2R/CHO membrane fraction
T1 construct: expressed in transfected cells; membrane fraction
T1 sequence (P49146 1-381): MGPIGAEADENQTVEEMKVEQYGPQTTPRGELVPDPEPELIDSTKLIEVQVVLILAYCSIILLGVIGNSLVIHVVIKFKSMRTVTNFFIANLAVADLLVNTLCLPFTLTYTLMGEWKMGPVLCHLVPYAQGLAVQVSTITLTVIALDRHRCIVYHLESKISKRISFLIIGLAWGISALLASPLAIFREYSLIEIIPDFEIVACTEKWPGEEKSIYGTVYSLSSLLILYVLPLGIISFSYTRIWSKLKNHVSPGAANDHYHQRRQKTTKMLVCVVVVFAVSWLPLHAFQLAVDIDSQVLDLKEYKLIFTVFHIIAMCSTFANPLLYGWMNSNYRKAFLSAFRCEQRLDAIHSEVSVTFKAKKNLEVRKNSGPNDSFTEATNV
Procedure, shortened: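 Agonism measured as [35S]GTPγS binding, read by GF/C filtration and scintillation counting after 120 min at room temperature, using human Y2 membranes at 1 μg protein/mL in pH 7.4 Tris/MgCl2/NaCl/GDP buffer. Compound serially diluted 100 μM–1 nM; EC50 normalized to PYY(3-36) (ratio = compound/PYY).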

human Y2 receptor [2] = target: T1, human Y2 receptor; experiment: Receptor Binding Assay (RBA) for Human Y2, [125I]-PYY displacement on hY2R/CHO membrane fraction; conditions: IC50 of test compound/IC50 of PYY(3-36) (PYY(3-36) taken as 1)
Procedure, shortened: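 hY2R stably expressed in CHO/dhfr− cells; membrane fraction prepared from cells disrupted in 10 mM NaHCO3, 5 mM EDTA buffer with protease inhibitors. Binding read as displacement of [125I]-PYY.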

male C57EL/6J mice = experiment: 3-Days Continuous Subcutaneous Administration Test-1 (food intake suppressing activity); type: in vivo, mouse; conditions: 0.03 mg/kg/day, subcutaneous Alzet pump, food consumption over 3 days; relative to food intake suppression rate for PYY(3-36) (1 mg/kg/day) taken as 100%
Experimental: (4) Test Method: 3-Days Continuous Subcutaneous Administration Test-1
The food intake suppressing activity of the compound of the present invention was examined by the method described below.
The test compound was dissolved in 50% DMSO so that sustained release would occur at 0.03 mg/kg/day, and the solution was filled in the Alzet Pump (Alzet model: 1003D, sustained release rate: 1 μL/hr, capacity: 100 μL). After the filling, the pump was placed in a 2 mL Eppendorf tube containing 330 μL of physiological saline, and incubated at 37° C. for 2 hours or more. Thereafter, this pump was subcutaneously embedded in the back of each mouse by the method described below. After weighing, each male […] mice at 12-13 weeks of age (25° C., allowed to take food and water ad libitum; 12-hour bright-12-hour dark cycle, lighting turned on at 08:00) was anesthetized with diethyl ether; the skin in the upper back thereof was incised, and the above-mentioned pump was embedded subcutaneously. Thereafter, several drops of penicillin solution (100000 units/mL) were added to the incised part, and the incision was sutured using Michel's surgical needle. This mouse was returned to the rearing cage (reared alone), and given previously weighed food; 3 days later, the amount of remaining food was measured. Food consumption was calculated by subtracting the amount of remaining food after 3 days from the weight of the food given on the day of pump embedding. The food intake suppressing activity of each test compound was expressed as a food intake suppression rate (%) relative to the food intake suppression rate for PYY(3-36) (1 mg/kg/day) taken as 100%.

| Substance | GBA EC50 Ratio (human Y2 receptor [1]) | RBA IC50 Ratio (human Y2 receptor [2]) | food intake suppression rate (%) (male C57EL/6J mice) |
| --- | --- | --- | --- |
| 2-Methylbutanoyl-[D-Pro24, Pya(4)26, Cha27,36, Aib28,31, Lys30]-PYY(23-36) ({2‑methylbutanoyl}-S[dP]R[4Pal][Cha][Aib]NK[Aib]TRQR[Cha]-NH2) [compound No. 276] | 0.78 | 0.54 | 16% |
| 3-Carboxypropionyl-[D-Hyp24, Iva25, Pya(4)26, Cha27,36, Leu(Me)28, Lys30, Aib31]-PYY(23-36) (Suc-S[dHyp][Iva][4Pal][Cha][tBuAla]NK[Aib]TRQR[Cha]-NH2; SMILES CC[C@](C)(NC(=O)[C@H]1C[C@H](O)CN1C(=O)[C@H](CO)NC(=O)CCC(=O)O)C(=O)N[C@@H](Cc1ccncc1)C(=O)N[C@@H](CC1CCCCC1)C(=O)N[C@@H](CC(C)(C)C)C(=O)N[C@@H](CC(N)=O)C(=O)N[C@@H](CCCCN)C(=O)NC(C)(C)C(=O)N[C@H](C(=O)N[C@@H](CCCNC(=N)N)C(=O)N[C@@H](CCC(N)=O)C(=O)N[C@@H](CCCNC(=N)N)C(=O)N[C@@H](CC1CCCCC1)C(N)=O)[C@@H](C)O) [compound No. 350] | 1.9 | 0.92 | 41% |
| 3-Carboxypropionyl-[D-Pro24, Pya(4)26, Cha27,36, Aib28,31, Lys30]-PYY(23-36) (Suc-S[dP]R[4Pal][Cha][Aib]NK[Aib]TRQR[Cha]-NH2; SMILES C[C@@H](O)[C@H](NC(=O)C(C)(C)NC(=O)[C@H](CCCCN)NC(=O)[C@H](CC(N)=O)NC(=O)C(C)(C)NC(=O)[C@H](CC1CCCCC1)NC(=O)[C@H](Cc1ccncc1)NC(=O)[C@H](CCCNC(=N)N)NC(=O)[C@H]1CCCN1C(=O)[C@H](CO)NC(=O)CCC(=O)O)C(=O)N[C@@H](CCCNC(=N)N)C(=O)N[C@@H](CCC(N)=O)C(=O)N[C@@H](CCCNC(=N)N)C(=O)N[C@@H](CC1CCCCC1)C(N)=O) [compound No. 217] | 1.2 | 0.96 | 28% |
| 3-Carboxypropionyl-[D-Pro24, Pya(4)26, Cha27,36, Aib28,31, Lys30]-PYY(24-36) (Suc-[dP]R[4Pal][Cha][Aib]NK[Aib]TRQR[Cha]-NH2; SMILES C[C@@H](O)[C@H](NC(=O)C(C)(C)NC(=O)[C@H](CCCCN)NC(=O)[C@H](CC(N)=O)NC(=O)C(C)(C)NC(=O)[C@H](CC1CCCCC1)NC(=O)[C@H](Cc1ccncc1)NC(=O)[C@H](CCCNC(=N)N)NC(=O)[C@H]1CCCN1C(=O)CCC(=O)O)C(=O)N[C@@H](CCCNC(=N)N)C(=O)N[C@@H](CCC(N)=O)C(=O)N[C@@H](CCCNC(=N)N)C(=O)N[C@@H](CC1CCCCC1)C(N)=O) [compound No. 303] | 1.2 | 1.2 | 20% |
| 3-Carboxypropionyl-[Gln23, D-Pro24, Pya(4)26, Cha27,36, Aib28,31, Lys30]-PYY(23-36) (Suc-Q[dP]R[4Pal][Cha][Aib]NK[Aib]TRQR[Cha]-NH2; SMILES C[C@@H](O)[C@H](NC(=O)C(C)(C)NC(=O)[C@H](CCCCN)NC(=O)[C@H](CC(N)=O)NC(=O)C(C)(C)NC(=O)[C@H](CC1CCCCC1)NC(=O)[C@H](Cc1ccncc1)NC(=O)[C@H](CCCNC(=N)N)NC(=O)[C@H]1CCCN1C(=O)[C@H](CCC(N)=O)NC(=O)CCC(=O)O)C(=O)N[C@@H](CCCNC(=N)N)C(=O)N[C@@H](CCC(N)=O)C(=O)N[C@@H](CCCNC(=N)N)C(=O)N[C@@H](CC1CCCCC1)C(N)=O) [compound No. 218] | 1.9 | 2 | 27% |
| 4-Imidazolecarbonyl-[Aib24,28,31, Iva25, Pya(4)26, Cha27,36, Lys30]-PYY(23-36) [compound No. 344] | 1.7 | 1.9 | 22% |
| 4-Imidazolecarbonyl-[D-Hyp24, Iva25,28, Pya(4)26, Cha27,36, Lys30, Adb31]-PYY(23-36) [compound No. 337] | 1.3 | 0.99 | 49% |
| Ac-[D-Pro24, Cha27,36, Leu(Me)28, Lys30, Aib31]-PYY(23-36) (Ac-S[dP]RH[Cha][tBuAla]NK[Aib]TRQR[Cha]-NH2; SMILES CC(=O)N[C@@H](CO)C(=O)N1CCC[C@@H]1C(=O)N[C@@H](CCCNC(=N)N)C(=O)N[C@@H](Cc1c[nH]cn1)C(=O)N[C@@H](CC1CCCCC1)C(=O)N[C@@H](CC(C)(C)C)C(=O)N[C@@H](CC(N)=O)C(=O)N[C@@H](CCCCN)C(=O)NC(C)(C)C(=O)N[C@H](C(=O)N[C@@H](CCCNC(=N)N)C(=O)N[C@@H](CCC(N)=O)C(=O)N[C@@H](CCCNC(=N)N)C(=O)N[C@@H](CC1CCCCC1)C(N)=O)[C@@H](C)O) [compound No. 136] | – | – | 10% |
| Ac-[D-Pro24, Phe26, Cha27,36, Aib28,31, Lys30]-PYY(23-36) (Ac-S[dP]RF[Cha][Aib]NK[Aib]TRQR[Cha]-NH2; SMILES CC(=O)N[C@@H](CO)C(=O)N1CCC[C@@H]1C(=O)N[C@@H](CCCNC(=N)N)C(=O)N[C@@H](Cc1ccccc1)C(=O)N[C@@H](CC1CCCCC1)C(=O)NC(C)(C)C(=O)N[C@@H](CC(N)=O)C(=O)N[C@@H](CCCCN)C(=O)NC(C)(C)C(=O)N[C@H](C(=O)N[C@@H](CCCNC(=N)N)C(=O)N[C@@H](CCC(N)=O)C(=O)N[C@@H](CCCNC(=N)N)C(=O)N[C@@H](CC1CCCCC1)C(N)=O)[C@@H](C)O) [compound No. 345] | – | – | 10% |
| Ac-[Glu23, D-Pro24, Cha27,28,36, Lys30, Aib31]-PYY(23-36) (Ac-E[dP]RH[Cha][Cha]NK[Aib]TRQR[Cha]-NH2; SMILES CC(=O)N[C@@H](CCC(=O)O)C(=O)N1CCC[C@@H]1C(=O)N[C@@H](CCCNC(=N)N)C(=O)N[C@@H](Cc1c[nH]cn1)C(=O)N[C@@H](CC1CCCCC1)C(=O)N[C@@H](CC1CCCCC1)C(=O)N[C@@H](CC(N)=O)C(=O)N[C@@H](CCCCN)C(=O)NC(C)(C)C(=O)N[C@H](C(=O)N[C@@H](CCCNC(=N)N)C(=O)N[C@@H](CCC(N)=O)C(=O)N[C@@H](CCCNC(=N)N)C(=O)N[C@@H](CC1CCCCC1)C(N)=O)[C@@H](C)O) [compound No. 137] | – | – | 25% |
| [(1S)-1-carboxy-3-methylbutyl]carbamoyl-[D-Pro24, Cha27,36, Leu(Me)28, Lys30, Aib31]-PYY(23-36) (X11-S[dP]RH[Cha][tBuAla]NK[Aib]TRQR[Cha]-NH2; SMILES CC(C)C[C@H](NC(=O)N[C@@H](CO)C(=O)N1CCC[C@@H]1C(=O)N[C@@H](CCCNC(=N)N)C(=O)N[C@@H](Cc1c[nH]cn1)C(=O)N[C@@H](CC1CCCCC1)C(=O)N[C@@H](CC(C)(C)C)C(=O)N[C@@H](CC(N)=O)C(=O)N[C@@H](CCCCN)C(=O)NC(C)(C)C(=O)N[C@H](C(=O)N[C@@H](CCCNC(=N)N)C(=O)N[C@@H](CCC(N)=O)C(=O)N[C@@H](CCCNC(=N)N)C(=O)N[C@@H](CC1CCCCC1)C(N)=O)[C@@H](C)O)C(=O)O) [compound No. 253] | – | – | 19% |
| [βAla23, D-Pro24, Cha27,28,36, Aib31]-PYY(23-36) ([βAla][dP]RH[Cha][Cha]NL[Aib]TRQR[Cha]-NH2; N-terminus assumed; SMILES CC(C)C[C@H](NC(=O)[C@H](CC(N)=O)NC(=O)[C@H](CC1CCCCC1)NC(=O)[C@H](CC1CCCCC1)NC(=O)[C@H](Cc1c[nH]cn1)NC(=O)[C@H](CCCNC(=N)N)NC(=O)[C@H]1CCCN1C(=O)CCN)C(=O)NC(C)(C)C(=O)N[C@H](C(=O)N[C@@H](CCCNC(=N)N)C(=O)N[C@@H](CCC(N)=O)C(=O)N[C@@H](CCCNC(=N)N)C(=O)N[C@@H](CC1CCCCC1)C(N)=O)[C@@H](C)O) [compound No. 116] | 1.2 | 1.7 | – |
